Data published in patent publication US7906477.
Square brackets hold non-standard residues; d marks the D form. Ends that are not written are not given here. Tyr(3-NO2) = N[C@@H](Cc1ccc(O)c([N+](=O)[O-])c1)C(=O)O; Abz = aminobenzoic acid; Dap = NC[C@H](N)C(=O)O

Target: human glandular kallikrein 2 (hK2), enzymatically active (human), P20151
Assay: cell-based or functional assay

## [Tyr(3-NO2)]GKAFRL[Dap]FK(Abz)-{PEGA resin} [Y′GKAFRL-Dap-F-K′-PEGA (SEQ ID NO:53)]
  time required to generate clearly detectable fluorescence on the beads: 4 to 5 h
